Measurements as given in publication PMC2559947.
Where “and” joins values, the source holds several entries; their conditions need not be identical. Equal entries are not always repeated.

How the values were obtained:
[1] = target: C326A pea porphobilinogen synthase (pea (Pisum sativum)); assay: AUC
[2] = target: C326A pea porphobilinogen synthase (pea (Pisum sativum)); assay: native gel or EMSA
[3] = target: C326A pea porphobilinogen synthase (pea (Pisum sativum)); assay: AUC; remark: listed apart in the source
[4] = target: C326A pea porphobilinogen synthase (pea (Pisum sativum)); assay: AUC; remark: listed apart in the source

With “C326A pea porphobilinogen synthase (enzyme)” the stoichiometry N [1] was 8, the stoichiometry N [2] was 8 and the stoichiometry N [3] was 8 and 6. The stoichiometry N [4] was 6 and 8.
